# Test results from US20250152742A1, “COMPOSITIONS AND METHODS FOR NEUROLOGICAL DISEASES” (Trames Bio, Inc., priority 2022, published 2025).
# Tested on: engineered chimeric receptor SEQ ID NO: 33 and its mutants (human α7-nAChR ligand binding domain / human GlyRα1 ion pore domain) in Lenti-X 293T cells
# Assay: YFP fluorescence quenching anion reporter plate reader assay (percent quench, EC50)
# Assay type: cell-based
# Settings: for YFP fluorescence quenching using CNL001 (percent quench): receptor named in row; for YFP fluorescence quenching using Facinicline, 30 nM fac: ligand Facinicline 30 nM; for YFP fluorescence quenching using Facinicline, 300 nM fac: ligand Facinicline 300 nM; for YFP fluorescence quenching using Facinicline, 30 uM fac: ligand Facinicline 30 uM; for YFP fluorescence quenching using TC-6987, 1 uM tc6987: ligand TC-6987 1 uM; for YFP fluorescence quenching using TC-6987, 10 uM tc6987: ligand TC-6987 10 uM; for YFP fluorescence quenching using TC-6987, 500 uM tc6987: ligand TC-6987 500 uM; for YFP fluorescence quenching using Varenicline, 3 nM var: ligand Varenicline 3 nM; for YFP fluorescence quenching using Varenicline, 30 nM var: ligand Varenicline 30 nM; for YFP fluorescence quenching using Varenicline, 300 nM var: ligand Varenicline 300 nM; for YFP fluorescence quenching using Varenicline, 500 nM var: ligand Varenicline 500 nM; for YFP fluorescence quenching using Varenicline, 1 uM var: ligand Varenicline 1 uM
# Method in brief: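 Lenti-X 293T cells co-expressing an anion-quenchable YFP were transiently transfected with receptor DNA, then ligand was added in NaI-substituted buffer (pH 7.2) after 30 min at 37 °C. Fluorescence was read about 2 min; percent quench = mean of last 10 s over 15 s pre-ligand baseline.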
# [1] = 1 nM CNL001, first column so headed
# [2] = 1 nM CNL001, second column so headed
# [3] = 3 nM brd (TC-5619/Bradanicline)
# [4] = 10 nM CNL001, first column so headed
# [5] = 10 nM CNL001, second column so headed
# [6] = 30 nM brd (TC-5619/Bradanicline)
# [7] = 50 nM CNL001, first column so headed
# [8] = 50 nM CNL001, second column so headed
# [9] = 100 nM CNL001, first column so headed
# [10] = 100 nM CNL001, second column so headed
# [11] = 300 nM brd (TC-5619/Bradanicline)
# [12] = 1 uM CNL001, first column so headed
# [13] = 1 uM CNL001, second column so headed
molecule,measurement,setting,value
"CODA217: engineered receptor: W77F in SEQ ID NO: 33 (protein, synthetic sequence of chimeric LGIC) MRCSPGGVWLALAASLLHVSLQGEFQRKLYKELVKNYNPLERPVANDSQPLTVYFSLSLLQIMDVDEKNQVLTTNIFLQMSWTDHYLQWNVSEYPGVKTVRFPDGQIWKPDILLYNSADERFDATFHTNVLVNSSGHCQYLPPGIFKSSCPMDLKNFPMDVQTCKLKFGSWSYGGWSLDLQMQEADISGYIPNGEWDLVGIPGKRSERFYECCKEPYPDVTFTVTMRRRMGYYLIQMYIPSLLIVILSWISFWINMDAAPARVGLGITTVLTMTTQSSGSRASLPKVSYVKAIDIWMAVCLLFVFSALLEYAAVNFVSRQHKELLRFRRKRRHHKSPMLNLFQEDEAGEGRFNFSAYGMGPACLQAKDGISVKGANNSNTTNPPPAPSKSPEEMRKLFIQRAKKIDKISRIGFPMAFLIFNMFYWIIYKIVRREDVHNQ",YFP fluorescence quenching using CNL001 (percent quench),[1],−22.273%
same,YFP fluorescence quenching using CNL001 (percent quench),[2],−19.415%
same,YFP fluorescence quenching using TC-5619/Bradanicline (percent quench),[3],−12.1%
same,YFP fluorescence quenching using CNL001 (percent quench),[4],−9.563%
same,YFP fluorescence quenching using CNL001 (percent quench),[5],6.398%
same,YFP fluorescence quenching using TC-5619/Bradanicline (percent quench),[6],−14.72%
same,YFP fluorescence quenching using CNL001 (percent quench),[7],61.938%
same,YFP fluorescence quenching using CNL001 (percent quench),[8],66.837%
same,YFP fluorescence quenching using ABT-126 (percent quench),50 nM abt (ABT-126),37.81%
same,YFP fluorescence quenching using CNL001 (percent quench),[9],79.791%
same,YFP fluorescence quenching using CNL001 (percent quench),[10],80.908%
same,YFP fluorescence quenching (percent quench),100 nM CNL002,67.81%
same,YFP fluorescence quenching using ABT-126 (percent quench),100 nM abt (ABT-126),57.31%
same,YFP fluorescence quenching using AZD-0328 (percent quench),100 nM azd0328,−7.57%
same,YFP fluorescence quenching using ABT-126 (percent quench),300 nM abt (ABT-126),12.61%
same,YFP fluorescence quenching using AZD-0328 (percent quench),300 nM azd0328,7.08%
same,YFP fluorescence quenching using TC-5619/Bradanicline (percent quench),[11],−6.3%
same,YFP fluorescence quenching using CNL001 (percent quench),[12],83.444%
same,YFP fluorescence quenching using CNL001 (percent quench),[13],83.905%
same,YFP fluorescence quenching (percent quench),1 uM CNL002,69.42%
same,YFP fluorescence quenching using ABT-126 (percent quench),1 uM abt (ABT-126),66.05%
same,YFP fluorescence quenching (percent quench),10 uM ach (acetylcholine),−5.86%
same,YFP fluorescence quenching (percent quench),30 uM CNL002,73.64%
same,YFP fluorescence quenching using AZD-0328 (percent quench),30 uM azd0328,81.59%
same,YFP fluorescence quenching (percent quench),100 uM ach (acetylcholine),70.06%
same,YFP fluorescence quenching (percent quench),1 mM ach (acetylcholine),68.71%
same,YFP fluorescence quenching (percent quench),3 mM ach (acetylcholine),73.45%
same,"YFP fluorescence quenching using Facinicline, 30 nM fac",,−10.14
same,"YFP fluorescence quenching using Facinicline, 300 nM fac",,68.29
same,"YFP fluorescence quenching using Facinicline, 30 uM fac",,87.35
same,"YFP fluorescence quenching using TC-6987, 1 uM tc6987",,−10.35
same,"YFP fluorescence quenching using TC-6987, 10 uM tc6987",,−13.93
same,"YFP fluorescence quenching using TC-6987, 500 uM tc6987",,−7.54
same,"YFP fluorescence quenching using Varenicline, 3 nM var",first column,5.662
same,"YFP fluorescence quenching using Varenicline, 3 nM var",second column,7.57
same,"YFP fluorescence quenching using Varenicline, 30 nM var",first column,13.968
same,"YFP fluorescence quenching using Varenicline, 30 nM var",second column,19.079
same,"YFP fluorescence quenching using Varenicline, 300 nM var",first column,16.183
same,"YFP fluorescence quenching using Varenicline, 300 nM var",second column,18.025
same,"YFP fluorescence quenching using Varenicline, 500 nM var",first column,23.366
same,"YFP fluorescence quenching using Varenicline, 500 nM var",second column,19.206
same,"YFP fluorescence quenching using Varenicline, 1 uM var",first column,34.69
same,"YFP fluorescence quenching using Varenicline, 1 uM var",second column,30.504
"CODA75: non-responding chimeric engineered receptor used as the negative control (protein, synthetic sequence of chimeric LGIC, non-responding chimeric engineered receptor used as the negative control) MRCSPGGVWLALAASLLHVSLQGEFQRKLYKELVKNYNPLERPVANDSQPLTVYFSLSLLQIMDVDEKNQVLTTNIWLQMSWTDHYLQWNVSEYPGVKTVRFPDGQIWKPDILLYNSADERFDATFHTNVLVNSSGHCQYLPPGIFKSSCYIDVRWFPFDVQHCKLKFGSWSYGGWSLDLQMQEADISGYIPNGEWDLVGIPGKRSERFYECCKEPYPDVTFTVTMRRRTGYYLIQMYIPSLLIVILSWISFWINMDAAPARVGLGITTVLTMTTQSSGSEIMPATSDSVPLIAQAIDIWMAVCLLFVFSALLEYAAVNFVSRQHKELLRFRRKRRHHKSPMLNLFQEDEAGEGRFNFSAYGMGPACLQAKDGISVKGANNSNTTNPPPAPSKSPEEMRKLFIQRAKKIDKISRIGFPMAFLIFNMFYWIIYKIVRREDVHNQ",YFP fluorescence quenching using CNL001 (percent quench),[1],−8.496%
same,YFP fluorescence quenching using CNL001 (percent quench),[2],−2.266%
same,YFP fluorescence quenching using TC-5619/Bradanicline (percent quench),1 nM brd (TC-5619/Bradanicline),−13.39%
same,YFP fluorescence quenching using TC-5619/Bradanicline (percent quench),[3],−15.78%
same,YFP fluorescence quenching using CNL001 (percent quench),[4],1.816%
same,YFP fluorescence quenching using CNL001 (percent quench),[5],−4.649%
same,YFP fluorescence quenching using TC-5619/Bradanicline (percent quench),10 nM brd (TC-5619/Bradanicline),−13.47%
same,YFP fluorescence quenching using TC-5619/Bradanicline (percent quench),[6],−16.41%
same,YFP fluorescence quenching using CNL001 (percent quench),[7],−5.922%
same,YFP fluorescence quenching using CNL001 (percent quench),[8],−5.597%
same,YFP fluorescence quenching using ABT-126 (percent quench),50 nM abt (ABT-126),−17.07%
same,YFP fluorescence quenching using CNL001 (percent quench),[9],−8.159%
same,YFP fluorescence quenching using CNL001 (percent quench),[10],−5.058%
same,YFP fluorescence quenching (percent quench),100 nM CNL002,−7.94%
same,YFP fluorescence quenching using ABT-126 (percent quench),100 nM abt (ABT-126),−16.76%
same,YFP fluorescence quenching using AZD-0328 (percent quench),100 nM azd0328,−8.83%
same,YFP fluorescence quenching using ABT-126 (percent quench),300 nM abt (ABT-126),−16.76%
same,YFP fluorescence quenching using AZD-0328 (percent quench),300 nM azd0328,−11.15%
same,YFP fluorescence quenching using TC-5619/Bradanicline (percent quench),[11],−17.56%
same,YFP fluorescence quenching using ABT-126 (percent quench),500 nM abt (ABT-126),−14.68%
same,YFP fluorescence quenching using CNL001 (percent quench),[12],−4.272%
same,YFP fluorescence quenching using CNL001 (percent quench),[13],−1.281%
same,YFP fluorescence quenching (percent quench),1 uM CNL002,−9.81%
same,YFP fluorescence quenching using ABT-126 (percent quench),1 uM abt (ABT-126),−16%
same,YFP fluorescence quenching using ABT-126 (percent quench),3 uM abt (ABT-126),−14.11%
same,YFP fluorescence quenching using ABT-126 (percent quench),10 uM abt (ABT-126),−13.98%
same,YFP fluorescence quenching (percent quench),10 uM ach (acetylcholine),−12.88%
same,YFP fluorescence quenching (percent quench),30 uM CNL002,−15.27%
same,YFP fluorescence quenching using ABT-126 (percent quench),30 uM abt (ABT-126),−21.05%
same,YFP fluorescence quenching (percent quench),30 uM ach (acetylcholine),−18.67%
same,YFP fluorescence quenching using AZD-0328 (percent quench),30 uM azd0328,−11.92%
same,YFP fluorescence quenching using ABT-126 (percent quench),50 uM abt (ABT-126),−21.35%
same,YFP fluorescence quenching (percent quench),50 uM ach (acetylcholine),−0.29%
same,YFP fluorescence quenching using ABT-126 (percent quench),100 uM abt (ABT-126),−24.12%
same,YFP fluorescence quenching (percent quench),100 uM ach (acetylcholine),−14.46%
same,YFP fluorescence quenching (percent quench),300 uM ach (acetylcholine),−16.31%
same,YFP fluorescence quenching (percent quench),500 uM ach (acetylcholine),−17.41%
same,YFP fluorescence quenching (percent quench),1 mM ach (acetylcholine),−16.46%
same,YFP fluorescence quenching (percent quench),3 mM ach (acetylcholine),−12.38%
same,YFP fluorescence quenching (percent quench),5 mM ach (acetylcholine),−20.88%
same,YFP fluorescence quenching (percent quench),10 mM ach (acetylcholine),−8.69%
same,"YFP fluorescence quenching using Facinicline, 30 nM fac",,−11.68
same,"YFP fluorescence quenching using Facinicline, 100 nM fac",ligand Facinicline 100 nM,4.35
same,"YFP fluorescence quenching using Facinicline, 300 nM fac",,−10.55
same,"YFP fluorescence quenching using Facinicline, 30 uM fac",,−5.25
same,"YFP fluorescence quenching using TC-6987, 1 uM tc6987",,−11.79
same,"YFP fluorescence quenching using TC-6987, 10 uM tc6987",,−14.31
same,"YFP fluorescence quenching using TC-6987, 500 uM tc6987",,−19.65
same,"YFP fluorescence quenching using Varenicline, 3 nM var",first column,4.161
same,"YFP fluorescence quenching using Varenicline, 3 nM var",second column,−6.216
same,"YFP fluorescence quenching using Varenicline, 30 nM var",first column,−5.173
same,"YFP fluorescence quenching using Varenicline, 30 nM var",second column,−6.593
same,"YFP fluorescence quenching using Varenicline, 300 nM var",first column,−5.733
same,"YFP fluorescence quenching using Varenicline, 300 nM var",second column,−7.312
same,"YFP fluorescence quenching using Varenicline, 500 nM var",first column,−10.35
same,"YFP fluorescence quenching using Varenicline, 500 nM var",second column,−7.586
same,"YFP fluorescence quenching using Varenicline, 1 uM var",first column,−5.637
same,"YFP fluorescence quenching using Varenicline, 1 uM var",second column,−3.757
